# Measurements from US20220389118A1 (Chugai, published 2022).
# Residue numbers refer to the chain shown, from its start.
# T1: human FcγRIIa type R extracellular domain with C-terminal His tag (human, UniProt P12318 34-217)
# T1 construct: extracellular domain; also called FcγRIIaR; FcγRIIa(R)
# T1 sequence (looked up): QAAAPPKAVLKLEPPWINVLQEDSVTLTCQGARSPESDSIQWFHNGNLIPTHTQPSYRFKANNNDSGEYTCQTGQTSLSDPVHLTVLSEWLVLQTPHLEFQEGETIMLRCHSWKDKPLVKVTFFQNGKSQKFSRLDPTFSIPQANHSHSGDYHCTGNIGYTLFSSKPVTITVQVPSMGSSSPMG
# T2: human FcγRIIb extracellular domain with C-terminal His tag (human, UniProt P31994 43-217)
# T2 construct: extracellular domain
# T2 sequence (looked up): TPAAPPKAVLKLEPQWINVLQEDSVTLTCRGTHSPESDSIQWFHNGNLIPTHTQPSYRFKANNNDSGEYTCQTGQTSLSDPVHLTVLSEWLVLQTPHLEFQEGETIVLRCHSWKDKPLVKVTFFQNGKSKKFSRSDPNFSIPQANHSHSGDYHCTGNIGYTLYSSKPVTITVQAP
# T3: human FcγRIIb extracellular domain with C-terminal His tag (human, UniProt P31994 43-217)
# T3 construct: extracellular domain; also called FcgRIIb
# T3 sequence (looked up): T2 sequence (looked up)
# T4: human FcγRIIa type H extracellular domain with C-terminal His tag (human, UniProt P12318 34-217)
# T4 construct: extracellular domain; also called FcγRIIaH; FcγRIIa(H)
# T4 sequence (looked up): T1 sequence (looked up) with R134H
# B1: IL6R-BP497/IL6R-L (antibody, human IgG1, kappa)
# heavy: QVQLQESGPGLVKPSETLSLTCAVSGHSISHDHAWSWVRQPPGEGLEWIGFISYSGITNYNPSLQGRVTISRDNSKNTLYLQMNSLRAEDTAVYYCARSLARTTAMDYWGEGTLVTVSSASTKGPSVFPLAPSSKSTSGGTAALGCLVKDYFPEPVTVSWNSGALTSGVHTFPAVLQSSGLYSLSSVVTVPSSSLGTQTYICNVNHKPSNTKVDKKVEPKSCDKTHTCPPCPAPDLLGDDSVFLFPPKPKDTLMISRTPEVTCVVIDVAEEDGEVKFNWYVDGVEVHNAKTKPREEQYNSTYRVVSVLTVLHQDWLNGKEYKCKVSNKGLPRPIEKTISKAKGQPREPQVYTLPPSRDELTKNQVSLTCLVKGFYPSDIAVEWESNGQPENNYKTTPPVLDSDGSFFLYSKLTVDKSRWQQGNVFSCSVMHEALHNHYTQESLSLSP
# light: not shown
# notes: copies: 2 + 2
# B2: IL6R-BP533/IL6R-L (antibody, human IgG1, kappa)
# heavy: B1 heavy with A269G, Y298D, G329A, P398L
# light: not shown
# notes: copies: 2 + 2
# B3: IL6R-BP487/IL6R-L (antibody, human IgG1, kappa)
# heavy: B1 heavy with G329A, P398M
# light: not shown
# notes: copies: 2 + 2
# B4: IL6R-BP502/IL6R-L (antibody, human IgG1, kappa)
# heavy: B1 heavy with Y298D
# light: not shown
# notes: copies: 2 + 2
# B5: IL6R-BP503/IL6R-L (antibody, human IgG1, kappa)
# heavy: B1 heavy with Y298D, P398M
# light: not shown
# notes: copies: 2 + 2
# B6: IL6R-BP511/IL6R-L (antibody, human IgG1, kappa)
# heavy: B1 heavy with D235E, E274P, Y298D, G329A
# light: not shown
# notes: copies: 2 + 2
# B7: IL6R-BP499/IL6R-L (antibody, human IgG1, kappa)
# heavy: B1 heavy with Y298D, G329A, P398L
# light: not shown
# notes: copies: 2 + 2
# B8: IL6R-BP489/IL6R-L (antibody, human IgG1, kappa)
# heavy: B1 heavy with Y298D, G329A, P398M
# light: not shown
# notes: copies: 2 + 2
# B9: IL6R-BP536/IL6R-L (antibody, human IgG1, kappa)
# heavy: B1 heavy with A269S, Y298D, P398M
# light: not shown
# notes: copies: 2 + 2
# B10: IL6R-BP498/IL6R-L (antibody, human IgG1, kappa)
# heavy: B1 heavy with G329A, P398L
# light: not shown
# notes: copies: 2 + 2
# B11: IL6R-BP491/IL6R-L (antibody, human IgG1, kappa)
# heavy: B1 heavy with D235E, Y298D, G329A
# light: not shown
# notes: also called IL6R-491/IL6R-L; copies: 2 + 2
# B12: IL6R-BP496/IL6R-L (antibody, human IgG1, kappa)
# heavy: B1 heavy with Y298D, G329A, R332A
# light: not shown
# notes: copies: 2 + 2
# B13: IL6R-BP136/IL6R-L (antibody, human IgG1, kappa)
# heavy: B1 heavy with D235E, D239G, I266V, A269S, E270H, G273P, K328A, G329A, R332A
# light: not shown
# notes: IgG1 type
# B14: IL6R-BP142/IL6R-L (antibody, human IgG1, kappa)
# heavy: B1 heavy with D235E, D239G, I266V, A269S, E270H, G273P, K328N, G329A, R332A
# light: not shown
# notes: IgG1 type
# B15: IL6R-BP912/IL6R-L (antibody, human IgG1, kappa)
# heavy: B1 heavy with D235E, D239G, I266V, A269S, E270H, G273P, G329A
# light: not shown
# notes: IgG1 type
# B16: IL6R-BP121/IL6R-L (antibody, human IgG1, kappa)
# heavy: B1 heavy with D235E, D239G, I266V, A269S, E270H, G273P, K328Q, G329A, R332A
# light: not shown
# notes: IgG1 type
# B17: IL6R-BP554/IL6R-L (antibody, human IgG1, kappa)
# heavy: B1 heavy with D235E, E274D, G329A
# light: not shown
# notes: copies: 2 + 2
# B18: IL6R-BP510/IL6R-L (antibody, human IgG1, kappa)
# heavy: B1 heavy with D235E, E274P, G329A
# light: not shown
# notes: copies: 2 + 2
# B19: IL6R-BP438/IL6R-L (antibody, human IgG1, kappa)
# heavy: B1 heavy with I266V, G329A, I334T
# light: not shown
# notes: copies: 2 + 2
# B20: IL6R-BP558/IL6R-L (antibody, human IgG1, kappa)
# heavy: B1 heavy with D235E, A269G, E274D, G329A
# light: not shown
# notes: copies: 2 + 2
# Biological target: T1, human FcγRIIa type R extracellular …
# Experiment: SPR (Biacore), parent IL6R-B3/IL6R-L
row,Binder,KD(IIaR) parent/KD(IIaR) altered polypeptide
1,B1,12.9
2,B2,9.2
3,B3,28.3
4,B4,10.1
5,B5,19.4
6,B6,6.3
7,B7,22.3
8,B8,25.7
9,B9,13.9
10,B10,21.7
11,B11,9.3
12,B12,2.3

# Biological target: T2, human FcγRIIb extracellular domain with …
# Experiment: SPR (Biacore), parent IL6R-B3/IL6R-L
row,Binder,KD(IIb) parent/KD(IIb) altered polypeptide
1,B1,764
2,B2,756
3,B3,2700
4,B4,840
5,B5,1810
6,B6,891
7,B7,2120
8,B8,3100
9,B9,1040
10,B10,1880
11,B11,1020
12,B12,168

# Biological target: T2, human FcγRIIb extracellular domain with …
# Experiment: SPR (Biacore), ratio of KDs
Binder,KD(IIaH)/KD(IIb),KD(IIaR)/KD(IIb)
B1,236,21
B2,634,29.3
B3,730,33.8
B4,352,29.5
B5,503,33.2
B6,1240,50.6
B7,685,33.8
B8,870,42.8
B9,438,26.6
B10,564,30.8
B11,724,38.8
B12,201,25.5

# Biological target: T3, human FcγRIIb extracellular domain with …
# Experiment: SPR (Biacore), antibody captured, FcγR as analyte
Binder,KD(IIb) of parent polypeptide/KD(IIb) of altered polypeptide,Kd
B13,3.9 fold vs IL6R-B3/IL6R-L,0.8 µM
B14,2.6 fold vs IL6R-B3/IL6R-L,–
B15,2.1 fold vs IL6R-B3/IL6R-L,–
B16,2.8 fold vs IL6R-B3/IL6R-L,–

# Biological target: T5, human FcγRIa extracellular domain with C-terminal His tag (human, UniProt P12314 16-292)
# T5 construct: extracellular domain
# Experiment: SPR (Biacore)
# T5 sequence (P12314 16-292): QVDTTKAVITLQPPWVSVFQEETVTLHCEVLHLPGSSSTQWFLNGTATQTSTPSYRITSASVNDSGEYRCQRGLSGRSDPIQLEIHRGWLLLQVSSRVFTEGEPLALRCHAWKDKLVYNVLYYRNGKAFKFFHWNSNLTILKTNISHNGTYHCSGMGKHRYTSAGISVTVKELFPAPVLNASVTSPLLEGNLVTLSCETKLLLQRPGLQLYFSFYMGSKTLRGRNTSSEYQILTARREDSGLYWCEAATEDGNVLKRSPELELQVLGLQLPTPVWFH
row,Binder,Kd
1,B1,0.0021 µM
2,B2,0.0077 µM
3,B17,0.008 µM
4,B3,0.0012 µM
5,B4,0.0021 µM
6,B5,0.0012 µM
7,B6,0.006 µM
8,B7,0.0012 µM
9,B8,0.0013 µM
10,B9,0.0089 µM
11,B10,0.0013 µM
12,B11,0.0053 µM
13,B12,0.0012 µM
14,B18,0.006 µM

# Biological target: T4, human FcγRIIa type H extracellular …
# Experiment: SPR (Biacore)
row,Binder,Kd
1,B19,1.6 µM
2,B1,0.96 µM
3,B2,2.6 µM
4,B17,2.3 µM
5,B3,0.84 µM
6,B4,1.3 µM
7,B5,0.86 µM
8,B6,4.3 µM
9,B7,1 µM
10,B8,0.87 µM
11,B9,1.3 µM
12,B10,0.93 µM
13,B11,2.2 µM
14,B12,3.7 µM
15,B18,4 µM
16,B20,4.9 µM

# Biological target: T1, human FcγRIIa type R extracellular …
# Experiment: SPR (Biacore)
row,Binder,Kd
1,B19,0.18 µM
2,B1,0.085 µM
3,B2,0.12 µM
4,B3,0.039 µM
5,B4,0.11 µM
6,B5,0.057 µM
7,B6,0.18 µM
8,B7,0.049 µM
9,B8,0.043 µM
10,B9,0.079 µM
11,B10,0.051 µM
12,B11,0.12 µM
13,B12,0.47 µM
14,B20,0.33 µM

# Biological target: T2, human FcγRIIb extracellular domain with …
# Experiment: SPR (Biacore)
row,Binder,Kd
1,B1,0.0041 µM
2,B2,0.0041 µM
3,B3,0.0012 µM
4,B4,0.0037 µM
5,B5,0.0017 µM
6,B6,0.0035 µM
7,B7,0.0015 µM
8,B8,0.001 µM
9,B9,0.003 µM
10,B10,0.0017 µM
11,B11,0.003 µM
12,B12,0.018 µM
13,B18,0.0038 µM
14,B20,0.009 µM
